Measured values from the supplement of paper PMC11136658.

Test system: peptide library, one residue held at a place counted from the Y acceptor
Experiment: relative phosphorylation of the sub-library (ratio to the mean residue at this position); higher = residue favoured
In short: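 Every value reflects phosphorylation relative to the mean randomized residue. The sum of the 18 randomized residues, or 16 in the Ser/Thr-free library, served to normalize intensities at each position, which were then multiplied by that number. Intensities came from phosphorimaging with ImageQuant of biotinylated Tyr-centred peptides captured on streptavidin membranes after 90 min with purified recombinant kinases and 50 μM ATP plus γ-32P-ATP.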

Sequence of FRK, construct: aa208-end, human (P42685 208-505, looked up): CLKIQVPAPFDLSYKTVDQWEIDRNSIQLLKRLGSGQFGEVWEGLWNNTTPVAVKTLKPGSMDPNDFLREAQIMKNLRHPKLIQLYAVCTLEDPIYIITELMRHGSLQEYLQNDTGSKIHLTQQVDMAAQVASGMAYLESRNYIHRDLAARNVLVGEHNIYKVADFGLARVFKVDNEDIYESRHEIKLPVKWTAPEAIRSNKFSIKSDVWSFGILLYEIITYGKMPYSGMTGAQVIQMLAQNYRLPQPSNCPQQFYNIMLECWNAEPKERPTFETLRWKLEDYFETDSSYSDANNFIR
Sequence of FLT4, construct: aa800-end, human (P35916 800-1363, looked up): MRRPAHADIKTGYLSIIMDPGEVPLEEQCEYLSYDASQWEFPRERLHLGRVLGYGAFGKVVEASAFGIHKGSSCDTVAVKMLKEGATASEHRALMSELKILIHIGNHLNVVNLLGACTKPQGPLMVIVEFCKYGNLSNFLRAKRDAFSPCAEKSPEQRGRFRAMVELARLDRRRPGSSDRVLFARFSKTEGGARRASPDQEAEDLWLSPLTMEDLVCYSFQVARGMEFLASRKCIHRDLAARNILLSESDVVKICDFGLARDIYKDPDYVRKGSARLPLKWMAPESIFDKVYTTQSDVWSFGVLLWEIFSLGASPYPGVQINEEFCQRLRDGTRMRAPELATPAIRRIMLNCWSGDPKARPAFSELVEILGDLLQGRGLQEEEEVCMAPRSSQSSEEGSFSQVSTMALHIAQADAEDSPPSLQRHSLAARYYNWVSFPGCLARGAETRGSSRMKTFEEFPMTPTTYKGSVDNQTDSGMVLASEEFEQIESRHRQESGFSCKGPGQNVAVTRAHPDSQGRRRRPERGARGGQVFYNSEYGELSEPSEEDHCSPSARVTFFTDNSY

FLT4, construct: aa800-end, human (from UniProt P35916)
relative phosphorylation
Conditions	at +1	at +2	at +3	at +4	at +5	at -1	at -2	at -3	at -4	at -5
A fixed	0.654	0.524	0.48	0.749	0.758	0.638	0.879	0.799	0.976	0.878
D fixed	0.367	0.647	0.424	0.913	1.12	2.84	1.25	1.3	1.05	1.04
E fixed	0.448	0.846	0.366	0.895	0.95	1.93	1.3	1.34	1.16	0.956
F fixed	2.19	1.57	3.08	1.07	1.31	1.09	0.748	1.04	1.14	1.12
G fixed	0.351	0.332	0.713	1.01	0.98	0.492	0.949	0.888	0.967	0.956
H fixed	1.08	1.05	0.595	1.33	1.12	1.24	1.16	1.16	1.08	1.27
I fixed	1.69	1.02	1.82	0.723	0.927	1.05	0.825	0.743	0.798	0.898
K fixed	0.643	0.864	0.396	1.16	1.01	0.439	0.921	0.964	0.992	1.08
L fixed	1.06	1.36	2.1	0.856	1.06	0.746	0.887	0.845	0.928	0.853
M fixed	1.02	1.07	1.98	0.98	0.991	0.655	0.962	0.853	0.837	0.953
N fixed	0.534	0.899	0.389	0.868	1.1	1.6	1.2	1.24	0.896	1.08
P fixed	0.571	0.471	0.588	1.17	1.04	0.583	0.945	0.8	0.915	0.822
Q fixed	1.25	0.896	0.59	1.09	0.967	1.15	1.16	1.11	1.08	1.07
R fixed	0.734	1.3	0.554	1.37	1.01	0.507	1.17	1.09	1.14	1.24
S fixed	0.599	0.684	0.506	0.92	0.829	0.657	1.08	1.09	0.843	0.921
T fixed	0.9	0.895	0.72	0.848	0.771	0.792	0.899	1.01	0.74	0.848
V fixed	2.12	0.975	1.4	0.751	0.774	0.892	0.766	0.712	0.844	0.777
W fixed	1.78	2.6	1.3	1.3	1.28	0.706	0.895	1.03	1.61	1.23
pThr fixed	0.737	1.37	0.521	0.8	1.08	1.47	0.969	1.13	1.03	0.981
pTyr fixed	2.51	2.96	0.651	0.9	0.834	3.16	1.24	1.38	1.29	1.06

FRK, construct: aa208-end, human (from UniProt P42685)
relative phosphorylation
Conditions	at +1	at +2	at +3	at +4	at +5	at -1	at -2	at -3	at -4	at -5
A fixed	1.2	0.883	0.702	0.821	1.01	0.594	1.14	0.808	1.11	1.05
D fixed	0.563	0.473	0.24	0.573	0.93	0.836	1.19	1.92	1.14	1.12
E fixed	2.3	0.65	0.193	0.549	0.861	1.92	1.73	2.11	1.84	0.931
F fixed	1.03	1.6	1.95	1.38	1.21	0.878	0.642	0.892	1.03	1.07
G fixed	0.519	0.445	0.589	1.01	0.861	0.34	1.13	1.09	1.27	1.21
H fixed	0.91	0.758	0.741	1.32	1.15	0.777	1.02	0.902	0.913	0.993
I fixed	1.54	1.29	2.29	0.88	0.807	3.11	1.1	0.761	0.923	1.07
K fixed	0.343	0.897	0.475	1.23	1.06	0.27	0.568	0.631	0.719	0.858
L fixed	1.25	1.36	1.56	0.937	1.01	2.46	0.895	0.852	0.993	1.09
M fixed	1.76	0.966	1.3	1.22	0.914	1.13	0.67	0.895	0.929	1.12
N fixed	0.382	1.01	0.568	0.737	0.702	0.573	1.01	1.06	0.888	0.973
P fixed	0.116	0.601	0.87	0.971	1.15	0.452	1.3	1.04	1.1	1.11
Q fixed	1.23	0.748	0.469	0.965	0.974	0.664	1.01	0.838	1.06	0.966
R fixed	0.492	1.11	1.52	1.35	1.2	0.311	0.656	0.674	0.769	0.863
S fixed	0.919	1.09	0.642	0.863	1.01	0.433	1.03	0.938	0.792	0.836
T fixed	0.825	1.17	0.767	0.771	0.853	0.9	0.9	0.882	0.634	0.8
V fixed	1.18	1.21	1.71	0.865	0.934	1.9	1.3	0.778	0.793	0.825
W fixed	1.44	1.73	1.43	1.55	1.36	0.453	0.716	0.929	1.09	1.11
pThr fixed	1.09	1.58	0.217	0.462	0.638	2.06	1.3	1.28	0.91	0.853
pTyr fixed	4.6	2.61	0.782	0.659	0.692	1.06	1.28	1.7	1.57	0.867
